What was measured:
HeLa Kyoto [1] = test: solubility in G1/S (NP-40 vs SDS abundance) (log2 ratio); higher = more soluble; details: cell cycle stage: G1/S
HeLa Kyoto [2] = test: melting temperature (median over replicates), in situ; higher = more thermally stable
HeLa Kyoto [3] = test: solubility change mitosis vs G1/S (difference of NP-40 vs SDS log2 ratios) (log2 ratio difference); higher = more soluble in mitosis
HeLa Kyoto [4] = test: thermal stability score vs G1/S (z-score of summed log2 fold changes over temperatures); higher = more thermally stable than in G1/S
[5] = cell cycle stage: early G1 (4.5 h after nocodazole release)
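Wherever melting temperature (median over replicates), in situ is given: HeLa Kyoto cells synchronized by double thymidine or nocodazole block, proteins quantified by TMT10plex mass spectrometry, three independent biological replicates.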
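Wherever solubility change mitosis vs G1/S (difference of NP-40 vs SDS log2 ratios) is given: synchronized HeLa Kyoto cells (double thymidine block for G1/S, nocodazole release for mitosis), protein amounts in NP-40 versus SDS lysates quantified by mass spectrometry, three biological replicates.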
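Wherever solubility in G1/S (NP-40 vs SDS abundance) is given: HeLa Kyoto cells arrested at G1/S by double thymidine block, proteins quantified by TMT10plex mass spectrometry in mild NP-40 versus SDS extracts, three biological replicates.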
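Wherever thermal stability score vs G1/S (z-score of summed log2 fold changes over temperatures) is given: synchronized HeLa Kyoto cells, proteins quantified by TMT10plex mass spectrometry, three biological replicates, mitosis taken 0.5 h after nocodazole release, G1/S directly after double thymidine block.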

Sequence | solubility in G1/S (log2) (HeLa Kyoto [1]) | melting temperature (HeLa Kyoto [2]; cell cycle stage: G1/S) | melting temperature (HeLa Kyoto [2]; cell cycle stage: mitosis) | solubility change mitosis (log2) (HeLa Kyoto [3]) | thermal stability score (HeLa Kyoto [4]; [5]) | thermal stability score (HeLa Kyoto [4]; cell cycle stage: mitosis)
MANQVNGNAVQLKEEEEPMDTSSVTHTEHYKTLIEAGLPQKVAERLDEIFQTGLVAYVDLDERAIDALREFNEEGALSVLQQFKESDLSHVQNKSAFLCGVMKTYRQREKQGSKVQESTKGPDEAKIKALLERTGYTLDVTTGQRKYGGPPPDSVYSGVQPGIGTEVFVGKIPRDLYEDELVPLFEKAGPIWDLRLMMDPLSGQNRGYAFITFCGKEAAQEAVKLCDSYEIRPGKHLGVCISVANNRLFVGSIPKNKTKENILEEFSKVTEGLVDVILYHQPDDKKKNRGFCFLEYEDHKSAAQARRRLMSGKVKVWGNVVTVEWADPVEEPDPEVMAKVKVLFVRNLATTVTEEILEKSFSEFGKLERVKKLKDYAFVHFEDRGAAVKAMDEMNGKEIEGEEIEIVLAKPPDKKRKERQAARQASRSTAYEDYYYHPPPRMPPPIRGRGRGGGRGGYGYPPDYYGYEDYYDDYYGYDYHDYRGGYEDPYYGYDDGYAVRGRGGGRGGRGAPPPPRGRGAPPPRGRAGYSQRGAPLGPPRGSRGGRGGPAQQQRGRGSRGSRGNRGGNVGGKRKADGYNQPDSKRRQTNNQQNWGSQPIAQQPLQQGGDYSGNYGYNNDNQEFYQDTYGQQWK [HNRNPR] | -0.12 | 47.8 °C | 49.4 °C | 0.234 | 2.99 | 8.2
MGCTVSAEDKAAAERSKMIDKNLREDGEKAAREVKLLLLGAGESGKSTIVKQMKIIHEDGYSEEECRQYRAVVYSNTIQSIMAIVKAMGNLQIDFADPSRADDARQLFALSCTAEEQGVLPDDLSGVIRRLWADHGVQACFGRSREYQLNDSAAYYLNDLERIAQSDYIPTQQDVLRTRVKTTGIVETHFTFKDLHFKMFDVGGQRSERKKWIHCFEGVTAIIFCVALSAYDLVLAEDEEMNRMHESMKLFDSICNNKWFTDTSIILFLNKKDLFEEKITHSPLTICFPEYTGANKYDEAASYIQSKFEDLNKRKDTKEIYTHFTCATDTKNVQFVFDAVTDVIIKNNLKDCGLF [GNAI2] | -0.568 | 53.5 °C | 54.2 °C | -0.242 | 0.395 | 0.061
MSDTSESGAGLTRFQAEASEKDSSSMMQTLLTVTQNVEVPETPKASKALEVSEDVKVSKASGVSKATEVSKTPEAREAPATQASSTTQLTDTQVLAAENKSLAADTKKQNADPQAVTMPATETKKVSHVADTKVNTKAQETEAAPSQAPADEPEPESAAAQSQENQDTRPKVKAKKARKVKHLDGEEDGSSDQSQASGTTGGRRVSKALMASMARRASRGPIAFWARRASRTRLAAWARRALLSLRSPKARRGKARRRAAKLQSSQEPEAPPPRDVALLQGRANDLVKYLLAKDQTKIPIKRSDMLKDIIKEYTDVYPEIIERAGYSLEKVFGIQLKEIDKNDHLYILLSTLEPTDAGILGTTKDSPKLGLLMVLLSIIFMNGNRSSEAVIWEVLRKLGLRPGIHHSLFGDVKKLITDEFVKQKYLDYARVPNSNPPEYEFFWGLRSYYETSKMKVLKFACKVQKKDPKEWAAQYREAMEADLKAAAEAAAEAKARAEIRARMGIGLGSENAAGPCNWDEADIGPWAKARIQAGAEAKAKAQESGSASTGASTSTNNSASASASTSGGFSAGASLTATLTFGLFAGLGGAGASTSGSSGACGFSYK [MAGED2] | 0.259 | 46.9 °C | 48.4 °C | -0.157 | 2.46 | 4.54
MEKILQMAEGIDIGEMPSYDLVLSKPSKGQKRHLSTCDGQNPPKKQAGSKFHARPRFEPVHFVASSSKDERQEDPYGPQTKEVNEQTHFASMPRDIYQDYTQDSFSIQDGNSQYCDSSGFILTKDQPVTANMYFDSGNPAPSTTSQQANSQSTPEPSPSQTFPESVVAEKQYFIEKLTATIWKNLSNPEMTSGSDKINYTYMLTRCIQACKTNPEYIYAPLKEIPPADIPKNKKLLTDGYACEVRCQNIYLTTGYAGSKNGSRDRATELAVKLLQKRIEVRVVRRKFKHTFGEDLVVCQIGMSSYEFPPALKPPEDLVVLGKDASGQPIFNASAKHWTNFVITENANDAIGILNNSASFNKMSIEYKYEMMPNRTWRCRVFLQDHCLAEGYGTKKTSKHAAADEALKILQKTQPTYPSVKSSQCHTGSSPRGSGKKKDIKDLVVYENSSNPVCTLNDTAQFNRMTVEYVYERMTGLRWKCKVILESEVIAEAVGVKKTVKYEAAGEAVKTLKKTQPTVINNLKKGAVEDVISRNEIQGRSAEEAYKQQIKEDNIGNQLLRKMGWTGGGLGKSGEGIREPISVKEQHKREGLGLDVERVNKIAKRDIEQIIRNYARSESHTDLTFSRELTNDERKQIHQIAQKYGLKSKSHGVGHDRYLVVGRKRRKEDLLDQLKQEGQVGHYELVMPQAN [NKRF] | -0.517 | 44.4 °C | 48 °C | 0.226 | 3.45 | 6.93
